Data on ten molecules can be found in US9976134B2, “Thermolysin variants” (Danisco US Inc., priority 2007, dated 2018).

First the molecules themselves.
B1: T049M: single-substitution thermolysin variant (SEQ ID NO:3 numbering) (protein, listed as Geobacillus caldoproteolyticus)
chain: ITGTSTVGVGRGVLGDQKNINTTYSTYYYLQDNTRGNGIFTYDAKYRTMLPGSLWADADNQFFASYDAPAVDAHYYAGVTYDYYKNVHNRLSYDGNNAAIRSSVHYSQGYNNAFWNGSQMVYGDGDGQTFIPLSGGIDVVAHELTHAVTDYTAGLIYQNESGAINEAISDIFGTLVEFYANKNPDWEIGEDVYTPGISGDSLRSMSDPAKYGDPDHYSKRYTGTQDNGGVHINSGIINKAAYLISQGGTHYGVSVVGIGRDKLGKIFYRALTQYLTPTSNFSQLRAAAVQSATDLYGSTSQEVASVKQAFDAVGVK
B2: A056R: single-substitution thermolysin variant (SEQ ID NO:3 numbering) (protein, listed as Geobacillus caldoproteolyticus)
chain: ITGTSTVGVGRGVLGDQKNINTTYSTYYYLQDNTRGNGIFTYDAKYRTTLPGSLWRDADNQFFASYDAPAVDAHYYAGVTYDYYKNVHNRLSYDGNNAAIRSSVHYSQGYNNAFWNGSQMVYGDGDGQTFIPLSGGIDVVAHELTHAVTDYTAGLIYQNESGAINEAISDIFGTLVEFYANKNPDWEIGEDVYTPGISGDSLRSMSDPAKYGDPDHYSKRYTGTQDNGGVHINSGIINKAAYLISQGGTHYGVSVVGIGRDKLGKIFYRALTQYLTPTSNFSQLRAAAVQSATDLYGSTSQEVASVKQAFDAVGVK
B3: S065I: single-substitution thermolysin variant (SEQ ID NO:3 numbering) (protein, listed as Geobacillus caldoproteolyticus)
chain: ITGTSTVGVGRGVLGDQKNINTTYSTYYYLQDNTRGNGIFTYDAKYRTTLPGSLWADADNQFFAIYDAPAVDAHYYAGVTYDYYKNVHNRLSYDGNNAAIRSSVHYSQGYNNAFWNGSQMVYGDGDGQTFIPLSGGIDVVAHELTHAVTDYTAGLIYQNESGAINEAISDIFGTLVEFYANKNPDWEIGEDVYTPGISGDSLRSMSDPAKYGDPDHYSKRYTGTQDNGGVHINSGIINKAAYLISQGGTHYGVSVVGIGRDKLGKIFYRALTQYLTPTSNFSQLRAAAVQSATDLYGSTSQEVASVKQAFDAVGVK
B4: G196H: single-substitution thermolysin variant (SEQ ID NO:3 numbering) (protein, listed as Geobacillus caldoproteolyticus)
chain: ITGTSTVGVGRGVLGDQKNINTTYSTYYYLQDNTRGNGIFTYDAKYRTTLPGSLWADADNQFFASYDAPAVDAHYYAGVTYDYYKNVHNRLSYDGNNAAIRSSVHYSQGYNNAFWNGSQMVYGDGDGQTFIPLSGGIDVVAHELTHAVTDYTAGLIYQNESGAINEAISDIFGTLVEFYANKNPDWEIGEDVYTPHISGDSLRSMSDPAKYGDPDHYSKRYTGTQDNGGVHINSGIINKAAYLISQGGTHYGVSVVGIGRDKLGKIFYRALTQYLTPTSNFSQLRAAAVQSATDLYGSTSQEVASVKQAFDAVGVK
B5: I156K: single-substitution thermolysin variant (SEQ ID NO:3 numbering) (protein, listed as Geobacillus caldoproteolyticus)
chain: ITGTSTVGVGRGVLGDQKNINTTYSTYYYLQDNTRGNGIFTYDAKYRTTLPGSLWADADNQFFASYDAPAVDAHYYAGVTYDYYKNVHNRLSYDGNNAAIRSSVHYSQGYNNAFWNGSQMVYGDGDGQTFIPLSGGIDVVAHELTHAVTDYTAGLKYQNESGAINEAISDIFGTLVEFYANKNPDWEIGEDVYTPGISGDSLRSMSDPAKYGDPDHYSKRYTGTQDNGGVHINSGIINKAAYLISQGGTHYGVSVVGIGRDKLGKIFYRALTQYLTPTSNFSQLRAAAVQSATDLYGSTSQEVASVKQAFDAVGVK
B6: G196D: single-substitution thermolysin variant (SEQ ID NO:3 numbering) (protein, listed as Geobacillus caldoproteolyticus)
chain: ITGTSTVGVGRGVLGDQKNINTTYSTYYYLQDNTRGNGIFTYDAKYRTTLPGSLWADADNQFFASYDAPAVDAHYYAGVTYDYYKNVHNRLSYDGNNAAIRSSVHYSQGYNNAFWNGSQMVYGDGDGQTFIPLSGGIDVVAHELTHAVTDYTAGLIYQNESGAINEAISDIFGTLVEFYANKNPDWEIGEDVYTPDISGDSLRSMSDPAKYGDPDHYSKRYTGTQDNGGVHINSGIINKAAYLISQGGTHYGVSVVGIGRDKLGKIFYRALTQYLTPTSNFSQLRAAAVQSATDLYGSTSQEVASVKQAFDAVGVK
B7: A058S: single-substitution thermolysin variant (SEQ ID NO:3 numbering) (protein, listed as Geobacillus caldoproteolyticus)
chain: ITGTSTVGVGRGVLGDQKNINTTYSTYYYLQDNTRGNGIFTYDAKYRTTLPGSLWADSDNQFFASYDAPAVDAHYYAGVTYDYYKNVHNRLSYDGNNAAIRSSVHYSQGYNNAFWNGSQMVYGDGDGQTFIPLSGGIDVVAHELTHAVTDYTAGLIYQNESGAINEAISDIFGTLVEFYANKNPDWEIGEDVYTPGISGDSLRSMSDPAKYGDPDHYSKRYTGTQDNGGVHINSGIINKAAYLISQGGTHYGVSVVGIGRDKLGKIFYRALTQYLTPTSNFSQLRAAAVQSATDLYGSTSQEVASVKQAFDAVGVK
B8: A056Y: single-substitution thermolysin variant (SEQ ID NO:3 numbering) (protein, listed as Geobacillus caldoproteolyticus)
chain: ITGTSTVGVGRGVLGDQKNINTTYSTYYYLQDNTRGNGIFTYDAKYRTTLPGSLWYDADNQFFASYDAPAVDAHYYAGVTYDYYKNVHNRLSYDGNNAAIRSSVHYSQGYNNAFWNGSQMVYGDGDGQTFIPLSGGIDVVAHELTHAVTDYTAGLIYQNESGAINEAISDIFGTLVEFYANKNPDWEIGEDVYTPGISGDSLRSMSDPAKYGDPDHYSKRYTGTQDNGGVHINSGIINKAAYLISQGGTHYGVSVVGIGRDKLGKIFYRALTQYLTPTSNFSQLRAAAVQSATDLYGSTSQEVASVKQAFDAVGVK
B9: I156H: single-substitution thermolysin variant (SEQ ID NO:3 numbering) (protein, listed as Geobacillus caldoproteolyticus)
chain: ITGTSTVGVGRGVLGDQKNINTTYSTYYYLQDNTRGNGIFTYDAKYRTTLPGSLWADADNQFFASYDAPAVDAHYYAGVTYDYYKNVHNRLSYDGNNAAIRSSVHYSQGYNNAFWNGSQMVYGDGDGQTFIPLSGGIDVVAHELTHAVTDYTAGLHYQNESGAINEAISDIFGTLVEFYANKNPDWEIGEDVYTPGISGDSLRSMSDPAKYGDPDHYSKRYTGTQDNGGVHINSGIINKAAYLISQGGTHYGVSVVGIGRDKLGKIFYRALTQYLTPTSNFSQLRAAAVQSATDLYGSTSQEVASVKQAFDAVGVK
B10: S065T: single-substitution thermolysin variant (SEQ ID NO:3 numbering) (protein, listed as Geobacillus caldoproteolyticus)
chain: ITGTSTVGVGRGVLGDQKNINTTYSTYYYLQDNTRGNGIFTYDAKYRTTLPGSLWADADNQFFATYDAPAVDAHYYAGVTYDYYKNVHNRLSYDGNNAAIRSSVHYSQGYNNAFWNGSQMVYGDGDGQTFIPLSGGIDVVAHELTHAVTDYTAGLIYQNESGAINEAISDIFGTLVEFYANKNPDWEIGEDVYTPGISGDSLRSMSDPAKYGDPDHYSKRYTGTQDNGGVHINSGIINKAAYLISQGGTHYGVSVVGIGRDKLGKIFYRALTQYLTPTSNFSQLRAAAVQSATDLYGSTSQEVASVKQAFDAVGVK

A short description of the data set: Stability assay in 25% TIDE 2X detergent with DTPA (residual Abz-AGLA-Nba protease activity). As to conditions: 60 min at 32°C; variant residual AGLA activity divided by wild-type residual activity. Format: physicochemical. The protocol: The stability of thermolysin and variants thereof was measured after incubation under defined conditions in the presence of 25% TIDE® 2× detergent. The initial and residual activity was determined.
MTPs were obtained from Costar (type 9017) and from Greiner (black plate, type 655076). Test Method Unstressed Conditions:
First, 20 μl thermolysin containing culture supernatant was diluted with 180 μl MES assay buffer. Then, 20 μl diluted supernatant was diluted further with 180 μl MES assay buffer. Subsequently 10 μl of this dilution was transferred into 190 μl AGLA-substrate solution in a pre-warmed plate (Greiner 655076) at 25° C. Any air bubbles present were blown away and the plate was measured according to the AGLA protease assay protocol described below.
First, 20 μl of culture supernatant was diluted with 180 μl 27.5% TIDE®+detergent solution and placed in the iEMS shaker. The plate covered with a plate seal was incubated for a total of 60 minutes at 32° C. at 900 rpm. In addition, 20 μl of culture supernatant was diluted with 180 μl 27.5% TIDE®−solution and placed in the iEMS shaker. This plate covered with a plate seal was incubated for a total of 180 minutes at 50° C. at 900 rpm.
Subsequently after the respective incubations, 20 μl of either of these solutions were diluted with 180 μl MES assay buffer and 10 μl of this dilution were diluted with 190 μl AGLA-substrate solution in a pre-warmed plate (Greiner 655076) at 25° C.
Fluorescence measurements were taken at excitation of 350 nm and emission of 420 nm. The spectrofluorometer software calculated the reaction rates (=slope) of the increase in fluorescence for each well to a linearly regressed line of (milli-) RFU/min. The ratio of the residual and initial AGLA activity was used to express the 25% TIDE® 2× stability as follows: Percentage of residual activity=[slope of stressed]*100/[slope of unstressed]
For each sample (thermolysin and variants thereof) the performance index was calculated by dividing the residual activity of the variant by the residual activity of thermolysin. The performance index compared the stability of the variant and the standard thermolysin enzyme (e.g., wild type or parental enzyme), determined under the same conditions.
In these experiments, the liberation of Abz-AG by protease cleavage of Abz-AGLA-Nba was monitored by fluorescence spectrometry (Ex. 350/Em. 420). The rate of appearance of Abz-AG was a measure of proteolytic activity.
The Abz-AGLA-Nba assay solution was prepared by adding 1 ml of the Abz-AGLA-Nba stock to 19 ml MES substrate buffer and mixed well for at least 2 minutes. Subsequently the thermolysin or variants thereof containing culture supernatants were diluted with MES assay buffer to a concentration of 1-6 μg protein per ml.
The assay was performed by adding 10 μl of diluted protease solution to each well, followed by the addition of 190 μl Abz-AGLA-Nba assay solution that was pre-equilibrated for at least 15 minutes at 25° C. The solutions were vigorously mixed, and the liberation of Abz-AG by protease cleavage of Abz-AGLA-Nba was monitored by fluorescence spectrometry at 25° C. in kinetic mode with excitation set at 350 nm and emission set at 420 nm. The rate of appearance of Abz-AG was a measure of proteolytic activity in the samples. The protease activity was expressed as RFU (relative fluorescence units·min^−1).
As described in Example 1, the stability of thermolysin variants was measured by determining the AGLA activity before and after incubation in the presence of TIDE® 2× heavy duty liquid (HDL) detergent at an elevated temperature. The tables contain the relative stability values compared to wild-type thermolysin, which is the quotient of the variant residual activity divided by the wild-type residual activity. A value greater than one indicates higher stability in the presence of detergent. […]
Turning to B1, the “PI (relative stability), 25% TIDE 2X with DTPA” value was determined as 1.02. With B2 the figure was 1.10. With B3 the figure was 1.05; with B4, 1.19.

Take B5: the “PI (relative stability), 25% TIDE 2X with DTPA” value was 1.07. Take B6: the “PI (relative stability), 25% TIDE 2X with DTPA” value stood at 1.02. To B7 belongs 1.02; to B8, 1.05. B9: the “PI (relative stability), 25% TIDE 2X with DTPA” value was 1.21. With B10 the figure was 1.04.
